Laboratory results published in publication PMC4066782, “The telomerase inhibitor Gno1p/PINX1 activates the helicase Prp43p during ribosome biogenesis” (Nucleic Acids Research, 2014).

Target: Prp43p-HIS (S. cerevisiae, UniProt P53131 1-767)
Test: cell-based or functional assay

Sequence of Prp43p-HIS (P53131 whole entry): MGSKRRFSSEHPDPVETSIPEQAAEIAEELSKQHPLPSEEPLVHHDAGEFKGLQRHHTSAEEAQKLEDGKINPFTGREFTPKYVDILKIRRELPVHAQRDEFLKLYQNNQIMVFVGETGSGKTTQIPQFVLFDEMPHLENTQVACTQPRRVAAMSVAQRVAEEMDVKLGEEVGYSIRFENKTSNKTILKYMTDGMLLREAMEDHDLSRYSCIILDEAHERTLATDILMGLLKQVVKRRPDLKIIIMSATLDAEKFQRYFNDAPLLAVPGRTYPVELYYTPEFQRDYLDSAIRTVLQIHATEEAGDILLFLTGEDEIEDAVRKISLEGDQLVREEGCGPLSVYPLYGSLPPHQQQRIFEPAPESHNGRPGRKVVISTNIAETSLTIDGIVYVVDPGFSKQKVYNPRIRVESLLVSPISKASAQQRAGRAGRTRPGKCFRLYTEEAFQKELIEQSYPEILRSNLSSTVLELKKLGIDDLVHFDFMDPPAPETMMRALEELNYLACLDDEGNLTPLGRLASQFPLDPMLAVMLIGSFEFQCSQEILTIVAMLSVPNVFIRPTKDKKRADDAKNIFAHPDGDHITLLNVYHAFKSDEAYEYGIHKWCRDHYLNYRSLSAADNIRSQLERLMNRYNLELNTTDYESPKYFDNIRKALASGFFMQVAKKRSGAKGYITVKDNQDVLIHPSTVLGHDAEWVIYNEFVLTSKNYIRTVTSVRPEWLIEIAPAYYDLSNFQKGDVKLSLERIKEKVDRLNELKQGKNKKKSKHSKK

- ATP hydrolysed by Prp43p-HIS after 60 min of incubation, with GST-PINX1-HIS against without (0.1 μM proteins, 100 μM ATP, 30°C): 9 fold
B1: GST-PINX1-HIS (natural protein, human, UniProt Q96BK5 1-328, looked up)
chain: MSMLAERRRKQKWAVDPQNTAWSNDDSKFGQRMLEKMGWSKGKGLGAQEQGATDHIKVQVKNNHLGLGATINNEDNWIAHQDDFNQLLAELNTCHGQETTDSSDKKEKKSFSLEEKSKISKNRVHYMKFTKGKDLSSRSKTDLDCIFGKRQSKKTPEGDASPSTPEENETTTTSAFTIQEYFAKRMAALKNKPQVPVPGSDISETQVERKRGKKRNKEATGKDVESYLQPKAKRHTEGKPERAEAQERVAKKKSAPAEEQLRGPCWDQSSKASAQDAGDHVQPPEGRDFTLKPKKRRGKKKLQKPVEIAEDATLEETLVKKKKKKDSK
